Assay results as given in doi:10.1101/124255.

Biological target: dynein-dynactin-BicD2N (DDB) complex (mouse | rat (endogenous in rat brain cytosol)) (UniProt Q921C5)
Test: multicolor single-molecule TIRF microscopy

Sequence of UniProt Q921C5 (Q921C5 whole entry, looked up, one chain of several): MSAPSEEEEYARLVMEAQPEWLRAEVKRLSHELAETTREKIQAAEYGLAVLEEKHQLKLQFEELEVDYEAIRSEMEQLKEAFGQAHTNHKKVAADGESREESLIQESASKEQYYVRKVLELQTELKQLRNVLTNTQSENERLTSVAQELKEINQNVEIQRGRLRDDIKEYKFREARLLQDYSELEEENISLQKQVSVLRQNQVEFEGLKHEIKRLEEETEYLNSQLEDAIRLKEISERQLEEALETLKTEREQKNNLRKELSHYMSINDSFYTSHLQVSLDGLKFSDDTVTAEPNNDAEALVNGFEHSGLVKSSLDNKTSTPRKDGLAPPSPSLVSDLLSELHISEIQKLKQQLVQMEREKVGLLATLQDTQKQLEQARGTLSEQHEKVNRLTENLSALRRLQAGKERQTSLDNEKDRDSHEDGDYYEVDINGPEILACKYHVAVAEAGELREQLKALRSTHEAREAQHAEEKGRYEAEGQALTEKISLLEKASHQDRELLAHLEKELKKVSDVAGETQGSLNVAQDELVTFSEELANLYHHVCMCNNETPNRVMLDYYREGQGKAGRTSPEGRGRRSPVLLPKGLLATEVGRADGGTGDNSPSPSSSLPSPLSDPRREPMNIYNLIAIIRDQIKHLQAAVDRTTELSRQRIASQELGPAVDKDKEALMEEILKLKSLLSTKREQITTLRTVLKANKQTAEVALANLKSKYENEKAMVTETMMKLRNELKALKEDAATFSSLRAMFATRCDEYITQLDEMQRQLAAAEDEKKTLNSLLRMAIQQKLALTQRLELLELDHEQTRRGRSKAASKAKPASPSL

percent of DDB-L complexes with both 647- and 488-SNAP LIS1: 8%
percent of DDB-L complexes with two LIS1 dimers: < 24%
percent of diffusive DDB complexes with a bound LIS1: 34%
percent of processive DDB complexes with a bound LIS1: 18%
stoichiometry N (LIS1 dimer per DDB): 1
stoichiometry N (LIS1 dimers per DDB): 2
B1: Rattus norvegicus LIS1 (PAFAH1b1), StrepII-SNAPf tagged, wild type (natural protein)
chain: MVLSQRQRDELNRAIADYLRSNGYEEAYSVFKKEAELDMNEELDKKYAGLLEKKWTSVIRLQKKVMELESKLNEAKEEFTSGGPLGQKRDPKEWIPRPPEKYALSGHRSPVTRVIFHPVFSVMVSASEDATIKVWDYETGDFERTLKGHTDSVQDISFDHSGKLLASCSADMTIKLWDFQGFECIRTMHGHDHNVSSVAIMPNGDHIVSASRDKTIKMWEVQTGYCVKTFTGHREWVRMVRPNQDGTLIASCSNDQTVRVWVVATKECKAELREHEHVVECISWAPESSYSSISEATGSETKKSGKPGPFLLSGSRDKTIKMWDVSTGMCLMTLVGHDNWVRGVLFHSGGKFILSCADDKTLRVWDYKNKRCMKTLNAHEHFVTSLDFHKTAPYVVTGSVDQTVKVWECR
modifications: SNAP dye (SNAP-Alexa 647 or SNAP-Surface 488) covalently on the SNAP tag
